Results: the supplement of paper PMC5998384

What was measured:
HeLa Kyoto [1] = test: melting temperature (median over replicates), in situ; higher = more thermally stable
HeLa Kyoto [2] = test: thermal stability score vs G1/S (z-score of summed log2 fold changes over temperatures); higher = more thermally stable than in G1/S
HeLa Kyoto [3] = test: solubility change mitosis vs G1/S (difference of NP-40 vs SDS log2 ratios) (log2 ratio difference); higher = more soluble in mitosis
HeLa Kyoto [4] = test: solubility in G1/S (NP-40 vs SDS abundance) (log2 ratio); higher = more soluble; conditions: cell cycle stage: G1/S
[5] = cell cycle stage: early G1 (4.5 h after nocodazole release)
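Wherever melting temperature (median over replicates), in situ is given: HeLa Kyoto cells synchronized by double thymidine or nocodazole block, proteins quantified by TMT10plex mass spectrometry, three independent biological replicates.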
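Wherever solubility change mitosis vs G1/S (difference of NP-40 vs SDS log2 ratios) is given: synchronized HeLa Kyoto cells (double thymidine block for G1/S, nocodazole release for mitosis), protein amounts in NP-40 versus SDS lysates quantified by mass spectrometry, three biological replicates.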
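Wherever solubility in G1/S (NP-40 vs SDS abundance) is given: HeLa Kyoto cells arrested at G1/S by double thymidine block, proteins quantified by TMT10plex mass spectrometry in mild NP-40 versus SDS extracts, three biological replicates.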
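Wherever thermal stability score vs G1/S (z-score of summed log2 fold changes over temperatures) is given: synchronized HeLa Kyoto cells, proteins quantified by TMT10plex mass spectrometry, three biological replicates, mitosis taken 0.5 h after nocodazole release, G1/S directly after double thymidine block.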

Row | Sequence | melting temperature (HeLa Kyoto [1]; cell cycle stage: G1/S) [°C] | melting temperature (HeLa Kyoto [1]; cell cycle stage: mitosis) [°C] | thermal stability score (HeLa Kyoto [2]; [5]) | thermal stability score (HeLa Kyoto [2]; cell cycle stage: mitosis) | solubility change mitosis (log2) (HeLa Kyoto [3]) | solubility in G1/S (log2) (HeLa Kyoto [4])
1 | MQNSHMDEYRNSSNGSTGNSSEVVVEHPTDFSTEIMNVTEMEQSPDDSPNVNASTEETEMASAVDLPVTLTETEANFPPEYEKFWKTVENNPQDFTGWVYLLQYVEQENHLMAARKAFDRFFIHYPYCYGYWKKYADLEKRHDNIKPSDEVYRRGLQAIPLSVDLWIHYINFLKETLDPGDPETNNTIRGTFEHAVLAAGTDFRSDRLWEMYINWENEQGNLREVTAIYDRILGIPTQLYSHHFQRFKEHVQNNLPRDLLTGEQFIQLRRELASVNGHSGDDGPPGDDLPSGIEDITDPAKLITEIENMRHRIIEIHQEMFNYNEHEVSKRWTFEEGIKRPYFHVKPLEKAQLKNWKEYLEFEIENGTHERVVVLFERCVISCALYEEFWIKYAKYMENHSIEGVRHVFSRACTIHLPKKPMVHMLWAAFEEQQGNINEARNILKTFEECVLGLAMVRLRRVSLERRHGNLEEAEHLLQDAIKNAKSNNESSFYAVKLARHLFKIQKNLPKSRKVLLEAIERDKENTKLYLNLLEMEYSGDLKQNEENILNCFDKAVHGSLPIKMRITFSQRKVEFLEDFGSDVNKLLNAYDEHQTLLKEQDSLKRKAENGSEEPEEKKAHTEDTTSSSTQMIDGDLQANQAVYNYSAWYQYNYQNPWNYGQYYPPPPT [PRPF39] | 47.2 | 50.4 | 1.54 | 2.13 | -0.157 | 0.0352
2 | MQQDGLGVGTRNGSGKGRSVHPSWPWCAPRPLRYFGRDARARRAQTAAMALLAGGLSRGLGSHPAAAGRDAVVFVWLLLSTWCTAPARAIQVTVSNPYHVVILFQPVTLPCTYQMTSTPTQPIVIWKYKSFCRDRIADAFSPASVDNQLNAQLAAGNPGYNPYVECQDSVRTVRVVATKQGNAVTLGDYYQGRRITITGNADLTFDQTAWGDSGVYYCSVVSAQDLQGNNEAYAELIVLGRTSGVAELLPGFQAGPIEDWLFVVVVCLAAFLIFLLLGICWCQCCPHTCCCYVRCPCCPDKCCCPEALYAAGKAATSGVPSIYAPSTYAHLSPAKTPPPPAMIPMGPAYNGYPGGYPGDVDRSSSAGGQGSYVPLLRDTDSSVASEVRSGYRIQASQQDDSMRVLYYMEKELANFDPSRPGPPSGRVERAMSEVTSLHEDDWRSRPSRGPALTPIRDEEWGGHSPRSPRGWDQEPAREQAGGGWRARRPRARSVDALDDLTPPSTAESGSRSPTSNGGRSRAYMPPRSRSRDDLYDQDDSRDFPRSRDPHYDDFRSRERPPADPRSHHHRTRDPRDNGSRSGDLPYDGRLLEEAVRKKGSEERRRPHKEEEEEAYYPPAPPPYSETDSQASRERRLKKNLALSRESLVV | 53.8 | 54.6 | -3.76 | -1.62 | 0.133 | -0.186
3 | MQRASRLKRELHMLATEPPPGITCWQDKDQMDDLRAQILGGANTPYEKGVFKLEVIIPERYPFEPPQIRFLTPIYHPNIDSAGRICLDVLKLPPKGAWRPSLNIATVLTSIQLLMSEPNPDDPLMADISSEFKYNKPAFLKNARQWTEKHARQKQKADEEEMLDNLPEAGDSRVHNSTQKRKASQLVGIEKKFHPDV [UBE2T] | 49.2 | 49.9 | -0.273 | -0.0505 | 0.118 | 0.66
4 | MQTPVNIPVPVLRLPRGPDGFSRGFAPDGRRAPLRPEVPEIQECPIAQESLESQEQRARAALRERYLRSLLAMVGHQVSFTLHEGVRVAAHFGATDLDVANFYVSQLQTPIGVQAEALLRCSDIISYTFKP [GEMIN7] | 53 |  | -0.755 | -0.344 | -0.0302 | -0.401
5 | MRERIWAPPLLLLLPLLLPPPLWGGPPDSPRRELELEPGPLQPFDLLYASGAAAYYSGDYERAVRDLEAALRSHRRLREIRTRCARHCAARHPLPPPPPGEGPGAELPLFRSLLGRARCYRSCETQRLGGPASRHRVSEDVRSDFQRRVPYNYLQRAYIKLNQLEKAVEAAHTFFVANPEHMEMQQNIENYRATAGVEALQLVDREAKPHMESYNAGVKHYEADDFEMAIRHFEQALREYFVEDTECRTLCEGPQRFEEYEYLGYKAGLYEAIADHYMQVLVCQHECVRELATRPGRLSPIENFLPLHYDYLQFAYYRVGEYVKALECAKAYLLCHPDDEDVLDNVDYYESLLDDSIDPASIEAREDLTMFVKRHKLESELIKSAAEGLGFSYTEPNYWIRYGGRQDENRVPSGVNVEGAEVHGFSMGKKLSPKIDRDLREGGPLLYENITFVYNSEQLNGTQRVLLDNVLSEEQCRELHSVASGIMLVGDGYRGKTSPHTPNEKFEGATVLKALKSGYEGRVPLKSARLFYDISEKARRIVESYFMLNSTLYFSYTHMVCRTALSGQQDRRNDLSHPIHADNCLLDPEANECWKEPPAYTFRDYSALLYMNDDFEGGEFIFTEMDAKTVTASIKPKCGRMISFSSGGENPHGVKAVTKGKRCAVALWFTLDPLYRELERIQADEVIAILDQEQQGKHELNINPKDEL [P3H2] | 53.7 | 53.9 | 4.77 | 5.82 | -0.0732 | -0.176
6 | MRFLAATFLLLALSTAAQAEPVQFKDCGSVDGVIKEVNVSPCPTQPCQLSKGQSYSVNVTFTSNIQSKSSKAVVHGILMGVPVPFPIPEPDGCKSGINCPIQKDKTYSYLNKLPVKSEYPSIKLVVEWQLQDDKNQSLFCWEIPVQIVSHL [NPC2] | 58.9 | 53.4 | -3.22 | -2.19 | 0.0342 | 0.123
7 | MRGAMELEPELLLQEARENVEAAQSYRRELGHRLEGLREARRQIKESASQTRDVLKQHFNDLKGTLGKLLDERLVTLLQEVDTIEQETIKPLDDCQKLIEHGVNTAEDLVREGEIAMLGGVGEENEKLWSFTKKASHIQLDSLPEVPLLVDVPCLSAQLDDSILNIVKDHIFKHGTVASRPPVQIEELIEKPGGIIVRWCKVDDDFTAQDYRLQFRKCTSNHFEDVYVGSETEFIVLHIDPNVDYQFRVCARGDGRQEWSPWSVPQIGHSTLVPHEWTAGFEGYSLSSRRNIALRNDSESSGVLYSRAPTYFCGQTLTFRVETVGQPDRRDSIGVCAEKQDGYDSLQRDQAVCISTNGAVFVNGKEMTNQLPAVTSGSTVTFDIEAVTLGTTSNNEGGHFKLRVTISSNNREVVFDWLLDQSCGSLYFGCSFFYPGWKVLVF [CRLF3] | 50 | 49.7 | -0.0259 | -0.0234 | -0.13 | -0.117
8 | MRGVWPPPVSALLSALGMSTYKRATLDEEDLVDSLSEGDAYPNGLQVNFHSPRSGQRCWAARTQVEKRLVVLVVLLAAGLVACLAALGIQYQTRSPSVCLSEACVSVTSSILSSMDPTVDPCHDFFSYACGGWIKANPVPDGHSRWGTFSNLWEHNQAIIKHLLENSTASVSEAERKAQVYYRACMNETRIEELRAKPLMELIERLGGWNITGPWAKDNFQDTLQVVTAHYRTSPFFSVYVSADSKNSNSNVIQVDQSGLGLPSRDYYLNKTENEKVLTGYLNYMVQLGKLLGGGDEEAIRPQMQQILDFETALANITIPQEKRRDEELIYHKVTAAELQTLAPAINWLPFLNTIFYPVEINESEPIVVYDKEYLEQISTLINTTDRCLLNNYMIWNLVRKTSSFLDQRFQDADEKFMEVMYGTKKTCLPRWKFCVSDTENNLGFALGPMFVKATFAEDSKSIATEIILEIKKAFEESLSTLKWMDEETRKSAKEKADAIYNMIGYPNFIMDPKELDKVFNDYTAVPDLYFENAMRFFNFSWRVTADQLRKAPNRDQWSMTPPMVNAYYSPTKNEIVFPAGILQAPFYTRSSPKALNFGGIGVVVGHELTHAFDDQGREYDKDGNLRPWWKNSSVEAFKRQTECMVEQYSNYSVNGEPVNGRHTLGENIADNGGLKAAYRAYQNWVKKNGAEHSLPTLGLTNNQLFFLGFAQVWCSVRTPESSHEGLITDPHSPSRFRVIGSLSNSKEFSEHFRCPPGSPMNPPHKCEVW [ECE1] | 56.1 | 55.2 | -1.05 | -0.159 | -0.00992 | 0.243
9 | MRHLPYFCRGQVVRGFGRGSKQLGIPTANFPEQVVDNLPADISTGIYYGWASVGSGDVHKMVVSIGWNPYYKNTKKSMETHIMHTFKEDFYGEILNVAIVGYLRPEKNFDSLESLISAIQGDIEEAKKRLELPEHLKIKEDNFFQVSKSKIMNGH [RFK] | 52.7 | 54.1 | 0.0986 | -0.44 | -0.114 | 0.518
10 | MRKGVLKDPEIADLFYKDDPEELFIGLHEIGHGSFGAVYFATNAHTSEVVAIKKMSYSGKQTHEKWQDILKEVKFLRQLKHPNTIEYKGCYLKEHTAWLVMEYCLGSASDLLEVHKKPLQEVEIAAITHGALHGLAYLHSHALIHRDIKAGNILLTEPGQVKLADFGSASMASPANSFVGTPYWMAPEVILAMDEGQYDGKVDIWSLGITCIELAERKPPLFNMNAMSALYHIAQNDSPTLQSNEWTDSFRRFVDYCLQKIPQERPTSAELLRHDFVRRDRPLRVLIDLIQRTKDAVRELDNLQYRKMKKILFQETRNGPLNESQEDEEDSEHGTSLNREMDSLGSNHSIPSMSVSTGSQSSSVNSMQEVMDESSSELVMMHDDESTINSSSSVVHKKDHVFIRDEAGHGDPRPEPRPTQSVQSQALHYRNRERFATIKSASLVTRQIHEHEQENELREQMSGYKRMRRQHQKQLIALENKLKAEMDEHRLKLQKEVETHANNSSIELEKLAKKQVAIIEKEAKVAAADEKKFQQQILAQQKKDLTTFLESQKKQYKICKEKIKEEMNEDHSTPKKEKQERISKHKENLQHTQAEEEAHLLTQQRLYYDKNCRFFKRKIMIKRHEVEQQNIREELNKKRTQKEMEHAMLIRHDESTRELEYRQLHTLQKLRMDLIRLQHQTELENQLEYNKRRERELHRKHVMELRQQPKNLKAMEMQIKKQFQDTCKVQTKQYKALKNHQLEVTPKNEHKTILKTLKDEQTRKLAILAEQYEQSINEMMASQALRLDEAQEAECQALRLQLQQEMELLNAYQSKIKMQTEAQHERELQKLEQRVSLRRAHLEQKIEEELAALQKERSERIKNLLERQEREIETFDMESLRMGFGNLVTLDFPKEDYR [TAOK3] | 50.9 | 50.5 | -0.159 | -0.329 | -0.0814 | -0.118
11 | MRKRTEPVALEHERCAAAGSSSSGSAAAALDADCRLKQNLRLTGPAAAEPRCAADAGMKRALGRRKGVWLRLRKILFCVLGLYIAIPFLIKLCPGIQAKLIFLNFVRVPYFIDLKKPQDQGLNHTCNYYLQPEEDVTIGVWHTVPAVWWKNAQGKDQMWYEDALASSHPIILYLHGNAGTRGGDHRVELYKVLSSLGYHVVTFDYRGWGDSVGTPSERGMTYDALHVFDWIKARSGDNPVYIWGHSLGTGVATNLVRRLCERETPPDALILESPFTNIREEAKSHPFSVIYRYFPGFDWFFLDPITSSGIKFANDENVKHISCPLLILHAEDDPVVPFQLGRKLYSIAAPARSFRDFKVQFVPFHSDLGYRHKYIYKSPELPRILREFLGKSEPEHQH [ABHD12] | 53 | 54.9 | 0.18 | -0.815 | 0.0278 | 0.0996
